Tests used:
[1] = target: GST3C-JIP3^LZ (murine); test: ITC; KLC2^TPR as titrant, GST3C-JIP3^LZ in the cell; 25°C; 0.5 M NaCl, 25 mM HEPES, 5 mM MgCl2, 1 mM TCEP, pH 7.5; four experiments globally fitted with a two-stage sequential model (A + B + B → AB + B → ABB); macroscopic association constants
[2] = target: JIP3^LZ (leucine zipper domain of murine JIP3 isoform A, residues 417-487) (murine); test: SEC-MALS; JIP3^LZ on a WTC-030S5 column; 25 mM HEPES pH 7.5, 0.1 M NaCl, 1 mM TCEP; 1 ml/min

KLC2^TPR (murine kinesin light chain 2 TPR domain, residues 191-480), sequence (O88448 190-479): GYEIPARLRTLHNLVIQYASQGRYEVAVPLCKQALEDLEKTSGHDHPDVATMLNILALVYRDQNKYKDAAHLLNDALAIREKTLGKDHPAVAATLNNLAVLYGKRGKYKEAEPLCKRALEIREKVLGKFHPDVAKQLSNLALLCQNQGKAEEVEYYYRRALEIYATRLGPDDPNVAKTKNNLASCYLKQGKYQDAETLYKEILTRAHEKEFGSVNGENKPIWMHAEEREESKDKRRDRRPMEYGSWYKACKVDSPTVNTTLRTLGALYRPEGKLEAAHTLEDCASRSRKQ

K (macroscopic association constant), stage A + B + B → BA + B [1] [µM⁻¹]	K (macroscopic association constant), stage BA + B → BAB [1] [µM⁻¹]	dH, stage A + B + B → BA + B [1] [kcal/mol]	dH, stage BA + B → BAB [1] [kcal/mol]	stoichiometry N [2]	Substance
0.132	0.132	-18.8	0.952	–	KLC2^TPR (murine kinesin light chain 2 TPR domain, residues 191-480) (from UniProt O88448 190-479) (domain or fragment)
–	–	–	–	2	JIP3^LZ (leucine zipper domain of murine JIP3 isoform A, residues 417-487) (domain or fragment)
